From PMC13168245 (Nature Communications, 2026)

How the values were obtained:
AMC008-b12 complex = target: T1, AMC008-b12 complex (HIV-1 clade B, isolate AMC008 …, stabilised); test: mass photometry; AMC008 with two excess Fabs (b12 and 3BC315, or VRC01 and 3BC315), 1:9 molar ratio in PBS, on ice 30 minutes, diluted in PBS; mass increase divided by 55 kDa per Fab; settings: both partners purified
T1 construct: source: formed from purified AMC008 Env (Expi293F) and excess b12 Fab (1:9 molar ratio in PBS, on ice 30 minutes); copies: 3 + 3 + 3 + 3

AMC008-VRC01 complex = target: T2, AMC008-VRC01 complex (HIV-1 clade B, isolate AMC008 …, stabilised); test: as above; settings: both partners purified
T2 construct: source: formed from purified AMC008 Env (Expi293F) and excess VRC01 Fab (1:9 molar ratio in PBS, on ice 30 minutes); copies: 3 + 3 + 3 + 3

B1: antibody 3BC315 Fab (Fab, V domains shown)
VH: QVQLVQSGAEMKDPGASVKVSCRASGYKFTDYYMHWVRQAPGQGLEWVGWVNTNGGFTKYGAKFQGRVTVTRDTSTNTVFLELSRLTFGDTAMYFCARPMRPVSHGIDYSGLFVFQFWGRGTMVTVSS
VL: QSALTQPASVSASPGQSITISCSGTRSDVGGYDFVSWYQQHPGKVPKLIIYEVTKRPSGIPQRFSGSKSGNTASLTISGLQADDEADYYCCSYANYDKLILGGGTKLTVL
notes: source: Expi293F, heavy and light chain co-expressed; IgG purified on Protein A, digested with papain, Fab in the Protein A flow-through
- stoichiometry N (AMC008-b12 complex): ~3 Fabs
- stoichiometry N (AMC008-VRC01 complex): ~1 Fab
